Where no end group is shown, it is not given here.
T1: TDP-1 peptide (human)
T1 construct: Immunogen peptide; conjugated to Luminex beads in the assay; also called TDP-43 aa 212-272
T1 peptide: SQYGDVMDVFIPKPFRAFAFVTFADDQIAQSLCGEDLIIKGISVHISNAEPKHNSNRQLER

T2: TP-29 (also: biotinylated, site not given here)
T2 construct: also called TP-29 peptide
T2 peptide: ISVHISNAEPKHNSN

T3: TP-30 (also: biotinylated, site not given here)
T3 construct: also called TP-30 peptide
T3 peptide: PKHNSNRQLERSGRF

T4: TP-26 (also: biotinylated, site not given here)
T4 construct: also called TP-26 peptide
T4 peptide: FRAFAFVTFADDQIA

T5: TP-31 (also: biotinylated, site not given here)
T5 construct: also called TP-31 peptide
T5 peptide: ERSGRFGGNPGGFGN

T6: TP-27 (also: biotinylated, site not given here)
T6 construct: also called TP-27 peptide
T6 peptide: ADDQIAQSLCGEDLI

T7: TP-28 (also: biotinylated, site not given here)
T7 construct: also called TP-28 peptide
T7 peptide: CGEDLIIKGISVHIS

T8: TDP-3 peptide (human)
T8 construct: Irrelevant control peptide; conjugated to Luminex beads in the assay; also called TDP-43 aa 310-370; irrelevant target
T8 peptide: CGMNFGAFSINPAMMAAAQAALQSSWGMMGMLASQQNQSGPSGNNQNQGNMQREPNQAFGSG

T9: TP-24 peptide (human, also: biotinylated, site not given here)
T9 construct: 15-mer of human TDP-43 from the library spanning aa 199-285; captured on streptavidin plates
T9 peptide: REFFSQYGDVMDVFI

T10: TP-25 peptide (human, also: biotinylated, site not given here)
T10 construct: 15-mer of human TDP-43 from the library spanning aa 199-285; captured on streptavidin plates
T10 peptide: VMDVFIPKPFRAFAF

T11: TDP-224 peptide (human)
T11 construct: 8-mer of human TDP-43; same ELISA method as for the biotinylated 15-mers
T11 peptide: KPFRAFAF

T12: TDP-212 peptide (human)
T12 construct: 8-mer of human TDP-43; same ELISA method as for the biotinylated 15-mers
T12 peptide: SQYGDVMD

T13: TDP-211 peptide (human)
T13 construct: 8-mer of human TDP-43; same ELISA method as for the biotinylated 15-mers
T13 peptide: FSQYGDVM

T14: TDP-216 peptide (human)
T14 construct: 8-mer of human TDP-43; same ELISA method as for the biotinylated 15-mers
T14 peptide: DVMDVFIP

T15: TDP-214 peptide (human)
T15 construct: 8-mer of human TDP-43; same ELISA method as for the biotinylated 15-mers
T15 peptide: YGDVMDVF

T16: TDP-220 peptide (human)
T16 construct: 8-mer of human TDP-43; same ELISA method as for the biotinylated 15-mers
T16 peptide: VFIPKPFR

T17: TDP-223 peptide (human)
T17 construct: 8-mer of human TDP-43; same ELISA method as for the biotinylated 15-mers
T17 peptide: PKPFRAFA

T18: TDP-210 peptide (human)
T18 construct: 8-mer of human TDP-43; same ELISA method as for the biotinylated 15-mers
T18 peptide: FFSQYGDV

T19: TDP-218 peptide (human)
T19 construct: 8-mer of human TDP-43; same ELISA method as for the biotinylated 15-mers
T19 peptide: MDVFIPKP

T20: TDP-221 peptide (human)
T20 construct: 8-mer of human TDP-43; same ELISA method as for the biotinylated 15-mers
T20 peptide: FIPKPFRA

T21: TDP-217 peptide (human)
T21 construct: 8-mer of human TDP-43; same ELISA method as for the biotinylated 15-mers
T21 peptide: VMDVFIPK

T22: TDP-213 peptide (human)
T22 construct: 8-mer of human TDP-43; same ELISA method as for the biotinylated 15-mers
T22 peptide: QYGDVMDV

T23: TDP-222 peptide (human)
T23 construct: 8-mer of human TDP-43; same ELISA method as for the biotinylated 15-mers
T23 peptide: IPKPFRAF

T24: TDP-219 peptide (human)
T24 construct: 8-mer of human TDP-43; same ELISA method as for the biotinylated 15-mers
T24 peptide: DVFIPKPF

T25: TDP-215 peptide (human)
T25 construct: same ELISA method as for the biotinylated 15-mers
T25 peptide: GDVMDVFI


Assays:
TDP-1 peptide = target: T1, TDP-1 peptide; experiment: Luminex bead assay, antibody serial dilution, TDP-1 peptide beads
TP-29 = target: T2, TP-29; experiment: indirect ELISA, biotinylated 15-mer on streptavidin plate, hybridoma supernatant
Protocol: (§1) Serum-free supernatants were harvested from stable hybridomas. The supernatants containing antibodies of interest were then screened by an indirect ELISA assay to determine epitopes. Epitopes were mapped using a library of TDP-43 15-mer peptides. Briefly, 96-well streptavidin-coated 96-well ELISA plates were incubated with 5 μg/mL of biotinylated 15-mer peptides spanning the amino acids (aa) 199-285 of human TDP-43 with 9 aa offset and 6 aa overlap. Plates were washed thoroughly with 0.05% Tween-20/PBS and then blocked with 1% bovine serum albumin (BSA) in 0.05% Tween-20/PBS for 1 hour at 37° C. The antibody contained in the hybridoma supernatant was then added at the indicated dilutions, and incubated for 2 hours at 37° C. after which the plates were washed as described previously. An AP-conjugated anti-mouse IgG secondary antibody (Jackson ImmunoResearch Laboratories, United Kingdom) was added at 1/1000 dilution in 0.05% Tween-20/PBS for 1 hour at 37° C. After the final wash, plates were incubated with pNPP (Sigma-Aldrich, Switzerland) an AP substrate solution, and read at 405 nm using an ELISA plate reader (Tecan).

TP-30 = target: T3, TP-30; experiment: as above
Protocol: as §1

TP-26 = target: T4, TP-26; experiment: as above
Protocol: as §1

TP-31 = target: T5, TP-31; experiment: as above
Protocol: as §1

TP-27 = target: T6, TP-27; experiment: as above
Protocol: as §1

TP-28 = target: T7, TP-28; experiment: as above
Protocol: as §1

BSA = target: T26, BSA (bovine, UniProt P02769); experiment: indirect ELISA, control coat in the 15-mer series, hybridoma supernatant
T26 construct: not specified; also called bovine serum albumin
T26 sequence (P02769 25-607 limits assumed): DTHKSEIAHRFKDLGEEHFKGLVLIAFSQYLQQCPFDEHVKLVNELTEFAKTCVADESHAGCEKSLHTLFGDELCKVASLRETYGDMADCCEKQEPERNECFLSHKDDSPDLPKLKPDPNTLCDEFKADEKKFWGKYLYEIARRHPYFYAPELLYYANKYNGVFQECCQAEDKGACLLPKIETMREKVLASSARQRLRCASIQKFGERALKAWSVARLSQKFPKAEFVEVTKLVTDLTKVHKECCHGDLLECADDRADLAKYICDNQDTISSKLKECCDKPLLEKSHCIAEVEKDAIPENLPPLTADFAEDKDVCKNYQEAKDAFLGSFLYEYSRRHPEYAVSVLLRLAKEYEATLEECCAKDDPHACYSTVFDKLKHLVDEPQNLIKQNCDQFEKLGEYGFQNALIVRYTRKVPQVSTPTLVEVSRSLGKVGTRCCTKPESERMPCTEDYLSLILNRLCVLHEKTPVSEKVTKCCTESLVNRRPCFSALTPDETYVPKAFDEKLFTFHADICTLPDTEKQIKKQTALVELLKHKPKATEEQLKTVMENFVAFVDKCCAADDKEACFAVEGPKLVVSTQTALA

TDP-3 peptide = target: T8, TDP-3 peptide; experiment: Luminex bead assay, TDP-3 peptide beads (irrelevant target)
TP-24 peptide = target: T9, TP-24 peptide; experiment: indirect ELISA, biotinylated 15-mer peptide on streptavidin plate, hybridoma supernatant
Protocol: as §1

TP-25 peptide = target: T10, TP-25 peptide; experiment: as above
Protocol: as §1

TDP-224 peptide = target: T11, TDP-224 peptide; experiment: indirect ELISA, 8-mer peptide library
Protocol: as §1
(§2) Furthermore, antibodies were tested using an indirect ELISA on a peptide library of 8-mer peptides with 7 aa overlap covering the sequence of human TDP-43 from aa 210 to aa 231, using the same ELISA method as describe previously in this section.

TDP-212 peptide = target: T12, TDP-212 peptide; experiment: indirect ELISA, 8-mer peptide library
Protocol: as §1, §2

TDP-211 peptide = target: T13, TDP-211 peptide; experiment: indirect ELISA, 8-mer peptide library
Protocol: as §1, §2

TDP-216 peptide = target: T14, TDP-216 peptide; experiment: indirect ELISA, 8-mer peptide library
Protocol: as §1, §2

TDP-214 peptide = target: T15, TDP-214 peptide; experiment: indirect ELISA, 8-mer peptide library
Protocol: as §1, §2

TDP-220 peptide = target: T16, TDP-220 peptide; experiment: indirect ELISA, 8-mer peptide library
Protocol: as §1, §2

TDP-223 peptide = target: T17, TDP-223 peptide; experiment: indirect ELISA, 8-mer peptide library
Protocol: as §1, §2

TDP-210 peptide = target: T18, TDP-210 peptide; experiment: indirect ELISA, 8-mer peptide library
Protocol: as §1, §2

TDP-218 peptide = target: T19, TDP-218 peptide; experiment: indirect ELISA, 8-mer peptide library
Protocol: as §1, §2

TDP-221 peptide = target: T20, TDP-221 peptide; experiment: indirect ELISA, 8-mer peptide library
Protocol: as §1, §2

TDP-217 peptide = target: T21, TDP-217 peptide; experiment: indirect ELISA, 8-mer peptide library
Protocol: as §1, §2

TDP-213 peptide = target: T22, TDP-213 peptide; experiment: indirect ELISA, 8-mer peptide library
Protocol: as §1, §2

TDP-222 peptide = target: T23, TDP-222 peptide; experiment: indirect ELISA, 8-mer peptide library
Protocol: as §1, §2

TDP-219 peptide = target: T24, TDP-219 peptide; experiment: indirect ELISA, 8-mer peptide library
Protocol: as §1, §2

TDP-215 peptide = target: T25, TDP-215 peptide; experiment: indirect ELISA, 8-mer peptide library, OD 405 nm
Protocol: as §1, §2

Row | EC50 (TDP-1 peptide) | binding result (TP-29) | binding result (TP-30) | binding result (TP-26) | binding result (TP-31) | binding result (TP-27) | binding result (TP-28) | binding result (BSA) | binding result (TDP-3 peptide) | OD (TP-24 peptide) | OD (TP-25 peptide) | binding result (TDP-224 peptide) | binding result (TDP-212 peptide) | binding result (TDP-211 peptide) | binding result (TDP-216 peptide) | binding result (TDP-214 peptide) | binding result (TDP-220 peptide) | binding result (TDP-223 peptide) | binding result (TDP-210 peptide) | binding result (TDP-218 peptide) | Binder | other results
1 | < 10 pM | no binding | no binding | no binding | no binding | no binding | no binding | no binding | no binding | 3.8 O.D. (405 nm) | 1.2 O.D. (405 nm) | no binding | no binding | no binding | no binding | no binding | no binding | no binding | no binding | no binding | ACI-7062-415C4-Ab1 (antibody, IgG1, V domains shown, also called 415C4C6; clone 14) VH: QVTLKESGPGILQPSQTLSLTCSFSGFSLSTYGIGVGWIRQPSGKGLEWLAHIWWNDNKYYKTALKSRLTISKDTSNNQVFLKIASVDTADSATYYCARVYGNLYYFGYWGQGTTLTVSS VL: DVLMTQTPLSLPVSLGDQASISCRSSQSIVHSTGNTYLEWYLQKPGQSPKLLIYKVSNRFSGVPDRFSGSGSGTDFTLKISRVEAEDLGVYYCFQGSRVPTFGAGTKLELKR | binding result (TDP-221 peptide): no binding; binding result (TDP-217 peptide): no binding; binding result (TDP-213 peptide): no binding; binding result (TDP-222 peptide): no binding; binding result (TDP-219 peptide): no binding; binding result (TDP-215 peptide): binds
2 | < 10 pM | no binding | no binding | no binding | no binding | no binding | no binding | no binding | no binding | 3.2 O.D. (405 nm) | 1.2 O.D. (405 nm) | no binding | no binding | no binding | no binding | no binding | no binding | no binding | no binding | no binding | ACI-7062-412E12-Ab1 (antibody, IgG1, V domains shown, also called 412E12A2; clone 10) VH: DVQLVESGGGLVQPGGSRRLSCAASGFTFSRFGMHWVRQAPEKGLEWVAYIRSGSDIIYYADSVKGRFTISRDNPENTLFLQMTSLRSEDTAMYYCARSGTTVPFDYWGQGTSLTVSS VL: DIVMTQSPSSLAMSVGQKVTMSCKSSQSLLNSGDQKNYLAWYQQKPGQSPELLLYFASTRASGVPDRFIGSGSGTDFSLTISSVQAEDLADYFCQQHYSIPLTFGAGTKLELKR | binding result (TDP-221 peptide): no binding; binding result (TDP-217 peptide): no binding; binding result (TDP-213 peptide): no binding; binding result (TDP-222 peptide): no binding; binding result (TDP-219 peptide): no binding; binding result (TDP-215 peptide): binds
3 | < 10 pM | no binding | no binding | no binding | no binding | no binding | no binding | no binding | no binding | 3.9 O.D. (405 nm) | 1.2 O.D. (405 nm) | no binding | no binding | no binding | no binding | no binding | no binding | no binding | no binding | no binding | ACI-7062-414A5-Ab1 (antibody, IgG2a, V domains shown, also called 414A5D2; clone 12) VH: DVQLVESGGGLVQPGGSRRLSCAASGFTFSSFGMHWVRQAPEKGLEWVAYIRSGSDIIYYADTVKGRFTISRDNPENTLFLEMTRLRSEDTAMYYCARSGTTVPFDYWGQGTSLTVSS VL: not shown | binding result (TDP-221 peptide): no binding; binding result (TDP-217 peptide): no binding; binding result (TDP-213 peptide): no binding; binding result (TDP-222 peptide): no binding; binding result (TDP-219 peptide): no binding; binding result (TDP-215 peptide): binds

From patent publication US20220025023A1 (AC IMMUNE, published 2022)
